Results published in patent publication US20250296984A1, “THERAPEUTIC AND DIAGNOSTIC AGENTS AND USES THEREOF” (priority 2022, published 2025).

How the values were obtained:
[1] = system: US28 negative CHO control cells; experiment: Flow cytometry off-target binding to US28 negative control CHO cells; design: species or system Chinese Hamster; settings: 1:10 dilution (w/v), after removing binding to blank and secondary Ab controls
Excerpt: FIG. 4. The positive surface binding of the clone US28-13-5G6-1D3 on CHO-US28-A1 cells was compared with the US28 negative CHO control cells. The clone US28-13-5G6-1D3 Ab bound 15-fold more to the surface of the US28 positive CHO-US28-A1 cells than to the US28 negative CHO cells in 1:50 (w/v).
FIG. 7. Surface binding of 13-5G6-1D3 rAb on CHO-US28-A1 cells, and on respective control CHO cells were validated by using FACS analysis. The bars showing results for CHO cells are colored with dark grey whereas the bars showing results for CHO-US28-A1 cells are colored with pale grey color. […] The surface binding of the 13-5G6-1D3 rAb to CHO cells was only measured in 1:10 dilution (w/v) and was 0.77% after removing the binding to blank and anti-mouse IgG-Alexa 488 secondary Ab controls.
FIG. 22. Percentage off-target binding of various ECD3-binding molecules of the invention (A) or various SEQ ID NO: 177-binding molecules of the invention (B), in comparison with VUN100, as assessed by binding to control CHO cells.
In a further embodiment, it is preferred that a binding molecule of the present invention binds preferentially to US28-expressing cells (such as CHO cells engineered to express US28) compared to its binding of US28-negative cells (such as wildtype CHO cells), for example, at a 1:50 (w/v) dilution, for example as determined by flow cytometry assay. […]

[2] = system: HCMV infected lung tissue; experiment: Immunohistochemistry (IHC) on human lung tissue; settings: normal lung tissue with HCMV DNA positive macrophages
Excerpt: FIG. 12. […] binding in 1:400 dilution (w/v) to HCMV-infected human tissues were studied by using immunohistochemistry analysis (IHC). […] The arrows (in the non-colour version of this figure) mark the US28-13-5G6-1D3 rAb cytoplasmic staining on typical HCMV infected alveolar cells with the characteristic cytomegalo effect in the HCMV positive control slide. […] C. The same macrophages show positive HCMV DNA in the same lung biopsy, whereas there are no HCMV DNA signals in normal alveolar cells, which is coherent with the US28 staining in the same sample. […] E. The IE staining is negative for the alveolar HCMV positive macrophages in normal lung tissue. […] Colour versions of FIG. 12 are also provided alongside the non-colour versions.
FIG. 25. The binding of the N-terminal antibodies to HCMV infected lung tissue and HCMV negative myometrium were studied by IHC. […] C. […] E. Mouse lung tissue with staining IgG was used as negative control antibody. […] As with the US28-13-5G6-1D3 rAb, the ECD1-binding molecules stained typical HCMV infected cells with the characteristic cytomegalo effect, showing strong cytoplasmic or membranous staining in these cells, as the US28 protein is known to be located in cytoplasm and cell membrane, and stained positively for some tissue macrophages, which are known to be carriers of latent or reactivated HCMV.

[3] = system: human heart muscle tissue; experiment: Immunohistochemistry (IHC) on human cardiac tissues; settings: FIG. 19 B
Experimental: Cytomegalovirus (CMV) control slides containing CMV positive lung tissue and CMV negative myometrium (product number #3240A) were obtained from Newcomer Supply Inc., Middleton, WI 53562-2579, USA. Tissue micro-arrays (TMAs) were obtained from US Biomax Inc., Derwood, MD 20855, USA, and included tumor tissues #BR1008b, #BS17016c, #BCN721b and normal tissues #FDA662a and heart tissues #HEN241a.
The paraffin sections were sequentially immersed into a. 100% xylene three times (5 min each); b. 100% ethanol twice (2 min each); c. 95% ethanol twice (2 min each). The slides were rinsed twice in water for 5 min to remove ethanol. […], the slides were immersed in 3% H2O2 for 5 minutes and washed thereafter twice (2×) with distilled water. The slides were then immersed in the working citrate buffer (pH 6.0) and covered with a lid. The buffer was heated in the microwave until it had boiled, and then kept in the steamer for 15 min.
The sections were cooled at room temperature for 30 min and washed with PBS. 5% BSA blocking solution was then added to the HIER treated samples and they were incubated at 37° C. for 30 min. […] Digitized pictures were taken by Olympus VS120 scanner and analyzed by using OlyVia 3.2 software (Olympus Corporation, 20101 Tokyo, Japan) by senior Pathologist. […]

B1: 13-5G6-1D3 rAb: recombinant antibody product of US28-13-5G6-1D3 produced in HEK293-F cells (antibody)
heavy: EVKLVESGGGLVQPGGSLRLACATSGFTFTDYYMSWVRQPPGKALEWLGFIRSKANGYTTEYSASVKGRFTISRDNSQSILYLQMNTLRSEDSATYYCARDERRTAWLAYWGQGTLVTVSAAKTTPPSVYPLAPGSAAQTNSMVTLGCLVKGYFPEPVTVTWNSGSLSSGVHTFPAVLQSDLYTLSSSVTVPSSTWPSETVTCNVAHPASSTKVDKKIVPRDCGCKPCICTVPEVSSVFIFPPKPKDVLTITLTPKVTCVVVDISKDDPEVQFSWFVDDVEVHTAQTQPREEQFNSTFRSVSELPIMHQDWLNGKEFKCRVNSAAFPAPIEKTISKTKGRPKAPQVYTIPPPKEQMAKDKVSLTCMITDFFPEDITVEWQWNGQPAENYKNTQPIMDTDGSYFIYSKLNVQKSNWEAGNTFTCSVLHEGLHNHHTEKSLSHSPGK
light: DVLMTQTPLSLPVSLGDQASISCRSSQSIVHSNGNTYLDWYLQKPGQSPKLLIYKVSNRFSGVPDRFSGSGSGTDFTLKISRVEAEDLGVYYCFQGSHVPTWTFGGGTKLEIKRADAAPTVSIFPPSSEQLTSGGASVVCFLNNFYPKDINVKWKIDGSERQNGVLNSWTDQDSKDSTYSMSSTLTLTKDEYERHNSYTCEATHKTSTSPIVKSFNRNEC
[1]
  surface binding to CHO cells, percent of cells: 0.77%

B2: 13-5G6-1D3: mouse monoclonal IgG1 kappa antibody against US28 ECD3; VH SEQ ID NO: 12, VL SEQ ID NO: 18 (antibody, V domains shown)
VH: EVKLVESGGGLVQPGGSLRLACATSGFTFTDYYMSWVRQPPGKALEWLGFIRSKANGYTTEYSASVKGRFTISRDNSQSILYLQMNTLRSEDSATYYCARDERRTAWLAYWGQGTLVTVSA
VL: DVLMTQTPLSLPVSLGDQASISCRSSQSIVHSNGNTYLDWYLQKPGQSPKLLIYKVSNRFSGVPDRFSGSGSGTDFTLKISRVEAEDLGVYYCFQGSHVPTWTFGGGTKLEIK
modifications: Mature form of VH sequence of 1D3, without the leader sequence; Mature form of VL sequence of 1D3, without the leader sequence
[2]
  IHC staining of normal lung tissue: positive US28 staining for macrophages, but negative staining for alveolar cells
[3]
  off-target binding in IHC: did not show any general off-target binding
